Patent US20250320281A1 (published 2025)

Legend:
Test in all cases: cell-based or functional assay
[1] = target: HIV-1 93UG077 Env (pseudovirus) (HIV-1 isolate 93UG077)
[2] = target: HIV-1 92BR020 Env (pseudovirus) (HIV-1 isolate 92BR020)
[3] = target: HIV-1 APV-13 Env (pseudovirus) (HIV-1 isolate APV-13)
[4] = target: HIV-1 APV-17 Env (pseudovirus) (HIV-1 isolate APV-17)
[5] = target: HIV-1 APV-6 Env (pseudovirus) (HIV-1 isolate APV-6)
[6] = target: HIV-1 93IN905 Env (pseudovirus) (HIV-1 isolate 93IN905)
[7] = target: HIV-1 IAVI-C18 Env (pseudovirus) (HIV-1 isolate IAVI-C18)
[8] = target: HIV-1 IAVI-C22 Env (pseudovirus) (HIV-1 isolate IAVI-C22)
[9] = target: HIV-1 IAVI-C3 Env (pseudovirus) (HIV-1 isolate IAVI-C3)
[10] = target: HIV-1 92UG024 Env (pseudovirus) (HIV-1 isolate 92UG024)
[11] = target: HIV-1 92UG005 Env (pseudovirus) (HIV-1 isolate 92UG005)
[12] = target: HIV-1 92TH021 Env (pseudovirus) (HIV-1 isolate 92TH021)
[13] = target: HIV-1 CMU02 Env (pseudovirus) (HIV-1 isolate CMU02)
[14] = target: HIV-1 94UG103 Env (pseudovirus) (HIV-1 isolate 94UG103)
[15] = target: HIV-1 92RW020 Env (pseudovirus) (HIV-1 isolate 92RW020)
[16] = target: HIV-1 93IN905 Env on pseudotyped virus (HIV-1 isolate 93IN905)
[17] = target: HIV-1 IAVI_C22 Env on pseudotyped virus (HIV-1 isolate IAVI_C22)
[18] = target: HIV-1 92TH021 Env on pseudotyped virus (HIV-1 isolate 92TH021)
[19] = target: HIV-1 NL43 Env on pseudotyped virus (HIV-1 NL43)
[20] = target: HIV-1 SF162 Env on pseudotyped virus (HIV-1 isolate SF162)
[21] = target: HIV-1 94UG103 Env on pseudotyped virus (HIV-1 isolate 94UG103)
[22] = target: HIV-1 92BR020 Env on pseudotyped virus (HIV-1 isolate 92BR020)

| Binder | IC50 (µg/mL), pseudovirus neutralization [1] | IC50 (µg/mL), pseudovirus neutralization [2] | IC50 (µg/mL), pseudovirus neutralization [3] | IC50 (µg/mL), pseudovirus neutralization [4] | IC50 (µg/mL), pseudovirus neutralization [5] | IC50 (µg/mL), pseudovirus neutralization [6] | IC50 (µg/mL), pseudovirus neutralization [7] | IC50 (µg/mL), pseudovirus neutralization [8] | IC50 (µg/mL), pseudovirus neutralization [9] | IC50 (µg/mL), pseudovirus neutralization [10] | IC50 (µg/mL), pseudovirus neutralization [11] | IC50 (µg/mL), pseudovirus neutralization [12] | IC50 (µg/mL), pseudovirus neutralization [13] | IC50 (µg/mL), pseudovirus neutralization [14] | IC50 (µg/mL), pseudovirus neutralization [15] | other results |
| --- | --- | --- | --- | --- | --- | --- | --- | --- | --- | --- | --- | --- | --- | --- | --- | --- |
| 1460_G14 (PGG14) (antibody, human IgG1, kappa, V domains shown) VH: QVLLVQSGTEVKKPGSSVKVSCQASGGAFSSYAFSWVRQAPGQGLEWMGMITPVFGETKYAPRFQGRLTLTAEESLSTTYMELRSLTSDDTAFYYCTRDRRVVPMATDNWLDPWGQGTLVTVSS VL: DIQLTQSPSSLSASVGDRVTVTCRASQTIHTYLNWYQQIPGKAPKLLIYGASTLQSGVPSRFSGSGSGTDFTLTINSLQPEDFATYYCQQSYSTPRTFGQGTRLDIKR [1460_G14 (PGG14), listing 1 of 2 here] | > 50 µg/mL | > 50 µg/mL | > 50 µg/mL | > 50 µg/mL | > 50 µg/mL | > 50 µg/mL | > 50 µg/mL | > 50 µg/mL | > 50 µg/mL | > 50 µg/mL | > 50 µg/mL | > 50 µg/mL | > 50 µg/mL | > 50 µg/mL | > 50 µg/mL | – |
| 1456_P20 (PG20) (antibody, human IgG1, kappa, V domains shown) VH: QVRLVQSGPEVKKPGSSVTVSCQASGGTFSSYAFTWVRQAPGQGLEWLGMVTPIFGEAKYSQRFEGRVTITADESTSTTSIELRGLTSEDTAIYYCARDRRAVPIATDNWLDPWGQGTLVTVSS VL: DIQLTQSPSSLSASVGDRVSITCRASQTINNYLNWYQQTPGKAPKLLIYGASNLQNGVPSRFSGSGSGTDFTLTISSLQPEDFATYYCQQSFSTPRTFGQGTRLDIKR | > 50 µg/mL | > 50 µg/mL | > 50 µg/mL | > 50 µg/mL | 25.8 µg/mL | > 50 µg/mL | > 50 µg/mL | > 50 µg/mL | > 50 µg/mL | > 50 µg/mL | > 50 µg/mL | > 50 µg/mL | > 50 µg/mL | > 50 µg/mL | 50 µg/mL | – |
| 1460_G14 (PGG14) (antibody, human IgG1, kappa, V domains shown) VH: QVLLVQSGTEVKKPGSSVKVSCQASGGAFSSYAFSWVRQAPGQGLEWMGMITPVFGETKYAPRFQGRLTLTAEESLSTTYMELRSLTSDDTAFYYCTRDRRVVPMATDNWLDPWGQGTLVTVSS VL: DIQLTQSPSSLSASVGDRVTVTCRASQTIHTYLNWYQQIPGKAPKLLIYGASTLQSGVPSRFSGSGSGTDFTLTINSLQPEDFATYYCQQSYSTPRTFGQGTRLDIKR [1460_G14 (PGG14), listing 2 of 2 here] | – | – | – | – | – | – | – | – | – | – | – | – | – | – | – | Neutralizing Antibody Assay: IC50; Virus/Ab Incubation 1 hour [16]: > 50 µg/mL; Neutralizing Antibody Assay: IC50; Virus/Ab Incubation 18 hour [16]: 3.17 µg/mL; Neutralizing Antibody Assay: IC50; Virus/Ab Incubation 1 hour [17]: > 50 µg/mL; Neutralizing Antibody Assay: IC50; Virus/Ab Incubation 18 hour [17]: > 50 µg/mL; Neutralizing Antibody Assay: IC50; Virus/Ab Incubation 1 hour [18]: > 50 µg/mL; Neutralizing Antibody Assay: IC50; Virus/Ab Incubation 18 hour [18]: > 50 µg/mL; Neutralizing Antibody Assay: IC50; Virus/Ab Incubation 1 hour [19]: 0.17 µg/mL; Neutralizing Antibody Assay: IC50; Virus/Ab Incubation 18 hour [19]: 0.05 µg/mL; Neutralizing Antibody Assay: IC50; Virus/Ab Incubation 1 hour [20]: 0.179 µg/mL; Neutralizing Antibody Assay: IC50; Virus/Ab Incubation 18 hour [20]: 0.0573 µg/mL; Neutralizing Antibody Assay: IC50; Virus/Ab Incubation 1 hour [21]: > 50 µg/mL; Neutralizing Antibody Assay: IC50; Virus/Ab Incubation 18 hour [21]: > 50 µg/mL; Neutralizing Antibody Assay: IC50; Virus/Ab Incubation 1 hour [22]: > 50 µg/mL; Neutralizing Antibody Assay: IC50; Virus/Ab Incubation 18 hour [22]: > 50 µg/mL |
| 1495_C14 (PGC14) (antibody, human IgG1, lambda, V domains shown) VH: DGHLVQSGVEVKKTGATVKISCKVSGYSFIDYYLHWVQRAPGKGLEWVGLIDPENGEARYAEKFQGRVTIIADTSIDTGYMEMRSLKSEDTAVYFCAAGAVGADSGSWFDPWGQGTLVTVSS VL: SYELTQPPSVSVSPGQTASITCSGSKLGDKYVSWYQLRPGQSPILVMYENDRRPSGIPERFSGSNSGDTATLTISGTQALDEADFYCQAWETTTTTFVFFGGGTQLTVLG | > 50 µg/mL | 0.64 µg/mL | > 50 µg/mL | > 50 µg/mL | 7.41 µg/mL | > 50 µg/mL | > 50 µg/mL | > 50 µg/mL | 9.5 µg/mL | > 50 µg/mL | > 50 µg/mL | > 50 µg/mL | > 50 µg/mL | > 50 µg/mL | 28.6 µg/mL | – |
| 1443_C16 (PG16) (TCN-116) (antibody, V domains shown) VH: QEQLVESGGGVVQPGGSLRLSCLASGFTFHKYGMHWVRQAPGKGLEWVALISDDGMRKYHSDSMWGRVTISRDNSKNTLYLQFSSLKVEDTAMFFCAREAGGPIWHDDVKYYDFNDGYYNYHYMDVWGKGTTVTVSS VL: QSALTQPASVSGSPGQTITISCNGTSSDVGGFDSVSWYQQSPGKAPKVMVFDVSHRPSGISNRFSGSKSGNTASLTISGLHIEDEGDYFCSSLTDRSHRIFGGGTKVTVLG | > 50 µg/mL | > 50 µg/mL | > 50 µg/mL | > 50 µg/mL | 0.08 µg/mL | 0.1 µg/mL | 0.007 µg/mL | 0.069 µg/mL | 14.8 µg/mL | > 50 µg/mL | > 50 µg/mL | 0.13 µg/mL | > 50 µg/mL | 0.008 µg/mL | 0.004 µg/mL | – |
| 1496_C09 (PG9) (TCN-109) (antibody, V domains shown) VH: QRLVESGGGVVQPGSSLRLSCAASGFDFSRQGMHWVRQAPGQGLEWVAFIKYDGSEKYHADSVWGRLSISRDNSKDTLYLQMNSLRVEDTATYFCVREAGGPDYRNGYNYYDFYDGYYNYHYMDVWGKGTTVTVSS VL: QSALTQPASVSGSPGQSITISCNGTSNDVGGYESVSWYQQHPGKAPKVVIYDVSKRPSGVSNRFSGSKSGNTASLTISGLQAEDEGDYYCKSLTSTRRRVFGTGTKLTVLG | > 50 µg/mL | > 50 µg/mL | > 50 µg/mL | 26.4 µg/mL | 0.09 µg/mL | – | 0.05 µg/mL | – | 12.9 µg/mL | – | > 50 µg/mL | – | > 50 µg/mL | 0.17 µg/mL | 0.06 µg/mL | – |
